Results as given in the supplement of paper PMC12042874.
± gives the uncertainty stated by the source.

Assay: amyloid nucleation score (Sup35N fusion, yeast selection) (log enrichment); library NNK3; higher = more nucleation; inactive = no reads after selection
Summary of the method: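 Nucleation score: DiMSum log enrichment of output over input reads, centred on the mode score of non-aggregating sequences. Only sequences with at least 100 input reads were kept. Reads came from Illumina sequencing of plasmid inserts before and after 7 days of growth at 30°C without adenine and uracil, in psi-negative yeast expressing Sup35N fused to peptides of 20 random codons after 24 hours of induction with 100 μM copper sulfate.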

Substance	amyloid nucleation score
CNNMYRERNNFWILMEWSLL	inactive
CDRRFYRMNLCKNPFNYRFG	0.55 ± 0.16
VEDCSFAVVKILWYRPFMIW	inactive
FRYVIVYKRSSFGYRKCIEC	inactive
EAHGYVR	inactive
FWNVLWATRLYFFSFYDITS	inactive
YGQGSGGIGRRVAGQDCNLI	inactive
TNPMYK	inactive
DWSWFK	inactive
QLMPKRAVKRDYRDSSWSGV	inactive
SLVLNSMMRTTNKNGNEGYV	inactive
NYSRPEL	0.782 ± 0.17
SYDMTLHG	0.436 ± 0.18
FMDFRSYITGHNWIHAAWPA	inactive
WNGKGLSSGTLSISRKT	inactive
NYARTFSRKRMVQKTRSGKG	-0.077 ± 0.4
LFCLLLHNIGKFRYMFY	inactive
FYWGACSIHLFKL	inactive
NLLYSCVYRHQPLYPAMDFP	inactive
NWGVYCVRDLWYRHSDMYHR	inactive
DRELSFLPGYYLYARVRHKS	inactive
GVRVS	inactive

Substance	amyloid nucleation score
HYMFSVVNVSGDCFFLSESN	3.24 ± 0.071
FGSVVGRCSTSFVYRLINIR	0.65 ± 0.17
DWHAIFTMFECNMQRGKSAR	0.113 ± 0.31
ICCKYGDAKRLVCWSQKSRK	inactive
TYAYELRIFSDYSHGLGFDP	-0.659 ± 0.88
YKSSNRSFFGIMANQPRLGC	inactive
ANSNAFIQSDHIRYLLDFAM	0.725 ± 0.18
AGNGPLSIYPMILMWMRVGR	inactive
CVNLYVELKFNHFDFVS	2.04 ± 0.09
NYAYPIPIRLLIEAWRMGTA	inactive
YNSRDDSIKFFFVRSCILTY	inactive
GQKCHLGCAFGCDEYTWAKG	inactive
HVSGVIYVVGNN	inactive
GGLEVMSLITT	inactive
IHSPKLLAGAM	inactive
YLTNNLFRFLEYR	inactive
LINGTGDRMYTDLLL	inactive
ILHFRETLTRINNLEA	inactive
SFNGMSCLRNNLRWNFNRNA	inactive
KAERVVRA	inactive
ESTIEMIAL	1.25 ± 0.11
LCCAPNADFWIN	inactive

Substance	amyloid nucleation score
GVVANFSLPLSAVFAWRSFR	2.78 ± 0.055
MCRMLFISGIQNCDPDVIMH	1.15 ± 0.12
NSLNMRFTLQQTLMGQMNYV	inactive
ILTGNGYDSTRKAYCQFWCF	inactive
FVHSLRVVIW	inactive
SSLKWYTHPAMCYAHTWSIT	inactive
IDVSCMQNNILRRIGFHV	inactive
RAKVISSWSLPGSSVKSYPA	inactive
QKLNIAFRWFWWFCTLSCNS	inactive
YVIITGRKQGITNM	inactive
FHSGMHCMKDFDCLPGFVGR	inactive
PFDVHKRR	inactive
TNITWYTRVLNGLYYTM	inactive
HSTGFPCLLVKITGLRHRLG	inactive
PSLLQVHKCLRIRLIWRWLW	inactive
SSGWNFPCSPSVMPDVVGVG	inactive
GGTIFNGNWVSTLSHPQRRA	0.47 ± 0.25
DIQNFHQKTKGCLLFVWRRQ	inactive
MWLVFLTKQNYNNKVQTG	inactive
YSMVFHTWCMRVMRGVFIWM	inactive
NCINVYGNTNLLRGPVGTSG	inactive
